Experimental data taken from paper PMC4580526 (Journal of bone and mineral research : the official journal …, 2015).

B1: [Cys25]PTH(1-84): mutant hormone with arginine-to-cysteine mutation at position 25 of mature PTH(1-84) (protein, UniProt P01270 32-115, looked up, variant R25C)
Parathyroid hormone: SVSEIQLMHNLGKHLNSMERVEWLCKKLQDVHNFVALGAPLAPRDAGSQRPRKKEDNVLVESHEKSLGEADKADVNVLTKAKSQ
modifications: Parathyroid hormone
B2: PTH(1-84): wild-type hormone expressed from plasmid encoding wild-type preproPTH in COS-7 cells (protein, UniProt P01270 32-115, looked up)
Parathyroid hormone: SVSEIQLMHNLGKHLNSMERVEWLRKKLQDVHNFVALGAPLAPRDAGSQRPRKKEDNVLVESHEKSLGEADKADVNVLTKAKSQ
modifications: Parathyroid hormone

Experiments:
[1] = biological target: PTH receptor type-1 (PTH1R), wild-type human (human) (UniProt Q03431); assay: radioligand binding
[2] = biological target: PTH receptor type-1 (PTH1R), wild-type human (human) (UniProt Q03431)
COS-7 cells = assay: Secretion of PTH into conditioned medium of transfected COS-7 cells; type: cell-based; conditions: for PTH level in conditioned medium, PTH(1-84) assay / PTH level in conditioned medium, ntPTH assay: 48 hours after transfection, mean ± SEM

Chain of UniProt Q03431 (Q03431 27-593): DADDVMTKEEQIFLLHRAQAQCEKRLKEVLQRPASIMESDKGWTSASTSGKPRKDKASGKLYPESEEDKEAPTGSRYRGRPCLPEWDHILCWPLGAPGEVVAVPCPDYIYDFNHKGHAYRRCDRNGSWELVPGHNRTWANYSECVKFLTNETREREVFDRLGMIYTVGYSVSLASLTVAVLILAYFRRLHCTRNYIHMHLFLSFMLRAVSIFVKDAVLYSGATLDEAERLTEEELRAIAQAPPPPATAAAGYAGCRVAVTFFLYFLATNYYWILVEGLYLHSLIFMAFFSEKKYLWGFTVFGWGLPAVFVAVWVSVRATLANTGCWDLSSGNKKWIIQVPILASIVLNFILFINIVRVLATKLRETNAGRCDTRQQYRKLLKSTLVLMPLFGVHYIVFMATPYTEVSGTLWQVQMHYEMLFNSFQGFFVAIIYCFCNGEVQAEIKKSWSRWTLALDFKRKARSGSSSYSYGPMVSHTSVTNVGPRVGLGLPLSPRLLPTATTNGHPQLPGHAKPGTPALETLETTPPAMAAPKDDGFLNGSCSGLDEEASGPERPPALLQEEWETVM

Molecule	IC50 [1] [nM]	PLC/IP signaling EC50, IP1 in GP-2.3 cells (Cisbio IP1 assay kit) [2] [nM]	cAMP signaling EC50, Glosensor luminescence in SGS-72 cells (SaOS-2-derived) [2] [nM]	PTH level in conditioned medium, PTH(1-84) assay (COS-7 cells) [pg/mL]	PTH level in conditioned medium, ntPTH assay (COS-7 cells) [pg/mL]	secretion of mutant hormone into the medium (COS-7 cells; transfected COS-7 cells)
[Cys25]PTH(1-34) (peptide)	12.3	265	0.27			
B1				1812 ± 175	30.9 ± 23	efficiently secreted into the medium
B2				1812 ± 94	2285 ± 277	
